Experimental data from patent US6034062A, “Bone morphogenetic protein (BMP)-9 compositions and their uses” (Genetics Institute, Inc., priority 1997, dated 2000).
Like-named read-outs stand apart in the source and are kept apart here.

Legend:
IMCD-3 cells = assay: IMCD-3 cell condensation and tubulogenesis in collagen matrix; assay type: cell-based; settings: IMCD-3 cells in 3-dimensional collagen gel, 100 ng/ml, 6 days, serum-free
Experimental: (§1) Several cell lines are tested for BMP-9 responsiveness in vitro. Cell proliferation, as indicated by [^3 H]thymidine incorporation, is determined in cell lines derived from kidney and lung. Cell proliferation is determined by measuring [^3 H]thymidine incorporation in subconfluent cells treated for 24 h with or without growth factors. NRK-52E (ATCC CRL 1571), WI-38 (ATCC CCL-75), CCD-11Lu (ATCC CCL-202), CCD-16Lu (ATCC CCL-204), and A-549 (ATCC CCL-185) cell lines are placed at 10^4 cells/well in 96 well plates and assayed for [^3 H]thymidine incorporation as described above. IMCD-3 cells (ATCC #CRL-2123) are cultured in a collagen matrix as described by Barros et al., PNAS USA 92:4412-4416 (1995), and treated with growth factors for 6 days to allow tubule formation.
In contrast, BMP-9 appeared to stimulate proliferation in several fibroblast cell lines derived from lung. […] The effect of rhBMP-9 on tubulogenesis was examined in IMCD-3 cells, another epithelial kidney cell line. […] It is therefore contemplated that both lung and kidney cells are physiological targets for BMP-9.

[1] = system: BMP-9 receptors expressed on HepG2 cells; assay: 125I-BMP-9 binding to HepG2 cells
Experimental: BMP-9 responsiveness in parenchymal liver cells is tested by screening four liver cell lines for their ability to bind iodinated, CHO-derived BMP-9. […] Specific binding of BMP-9 to HepG2 cells is carried out by incubating HepG2 cells grown to confluence in Dulbecco's Modified Eagle's Medium (DME) containing 10% heat-inactivated fetal calf serum (FCS) on gelatinized 6 well plates with 2 ng/ml ^125 I-BMP-9 and increasing concentrations of unlabelled BMP-9 in binding buffer (136.9 mM NaCl, 5.37 mM KCl, 1.26 mM CaCl2, 0.64 mM MgSO4, 0.34 mM Na2 HPO4, 0.44 mM KH2 PO4, 0.49 mM MgCl2, 25 mM HEPES and 0.5% BSA, pH 7.4) for 20 hours at 4° C. to achieve binding equilibrium. This incubation follows a one hour preincubation at 37° C. in binding buffer alone. For crosslinking experiments, the cells were incubated with 500 μM disuccinimidyl suberate for 20 minutes at […] following binding. Cell extracts were analyzed on SDS-PAGE. […] To test the binding specificity of the receptors for BMP-9, HepG2 cells were incubated with ^125 I-BMP-9 and a 250-fold excess of different unlabeled ligands.

liver plasma membranes = assay: [125I]rhBMP-9 binding to liver plasma membranes; settings: adult rat liver plasma membranes, displaceable by 100-fold excess of unlabeled rhBMP-9
Experimental: (§2) To determine potential target tissues for BMP-9, plasma membrane preparations from adult rat organs are screened for specific [^125 I]rhBMP-9 binding. Plasma membranes are prepared by the methods of Neville, J. Biophys Biochem Cytol 8:412-422 (1960) and Ray, Biochim Biophys Acta 196:1-9 (1970) with the following modifications: Fresh tissues from adult male Long-Evans rats are homogenized with 10 strokes of a teflon homogenizer. Plasma membranes are collected from discontinuous sucrose gradients at 37%/41% sucrose interface and the 41%/45% sucrose interface. Homogenization buffer and sucrose solutions are supplemented with 0.7 μg/ml leupeptin, 2 μg/ml aprotinin and 240 μg/ml pefabloc. Protein levels in plasma membrane preparations are determined by the bicinchoninic acid assay (Pierce, Rockford, Ill.) using immunoglobulin G as a standard.
(§3) BMP-9 binding is carried out by suspending plasma membranes at 30 μg/100μl in binding buffer (136.9 mM NaCl, 5.37 mM KCl, 1.26 mM CaCl2, 0.64 mM MgSO4, 0.34 mM Na2 HPO4, 0.44 mM KH2 PO4, 0.49 mM MgCl2, 25 mM HEPES and 0.5% BSA, pH 7.4) containing o.5 ng [^125 I]rhBMP-9. Binding is allowed to equilibrate by incubation for 16 h at 4° C. […]
(§4) To verify that this specific binding is of high affinity, a more complete displacement profile is determined with lung and kidney plasma membranes.

[2] = Ectopic bone formation in vivo (implant); set-up: species or system rat; settings: 25 μg/implant, after 10 days of implantation
Description: A modified version of the rat bone formation assay described in Sampath and Reddi, Proc. Natl. Acad. Sci. USA 80:6591-6595 (1983) is used to evaluate bone and/or cartilage activity of the BMP proteins. This modified assay is herein called the Rosen-modified Sampath-Reddi assay. The ethanol precipitation step of the Sampath-Reddi procedure is replaced by dialyzing (if the composition is a solution) or diafiltering (if the composition is a suspension) the fraction to be assayed against water. The solution or suspension is then redissolved in 0.1% TFA, and the resulting solution added to 20mg of rat matrix. A mock rat matrix sample not treated with the protein serves as a control. This material is frozen and lyophilized and the resulting powder enclosed in #5 gelatin capsules. The capsules are implanted subcutaneously in the abdominal thoracic area of 21-49 day old male Long Evans rats. The implants are removed after 7-14 days. […]
The other half of each implant is fixed and processed for histological analysis. […] glycolmethacrylate sections are stained with Von Kossa and acid fuschin to score the amount of induced bone and cartilage formation present in each implant. […] In a modified scoring method, three non-adjacent sections are evaluated from each implant and averaged. […]

WI-38 cells = assay: Cell proliferation, [3H]thymidine incorporation, WI-38; assay type: cell-based; settings: high doses of rhBMP-9, 24 h
Experimental: as §1

lung plasma membranes = assay: [125I]rhBMP-9 binding to lung plasma membranes; set-up: species or system rat
Experimental: as §2, §3, §4

B1: BMP-9: recombinant human bone morphogenetic protein-9, mature amino acids #1-#110 of SEQ ID NO:9, expressed in CHO cells (protein)
chain: TRECSRSCPRTAPQRQVRAVTRRTRMAHVAAGSTLARRKRSAGAGSHCQKTSLRVNFEDIGWDSWIIAPKEYEAYECKGGCFFPLADDVTPTKHAIVQTLVHLKFPTKVG
modifications: 125I-iodinated as tracer; unlabelled BMP-9 used as the displacing ligand
cell condensation and tubulogenesis (IMCD-3 cells): did not induce tubules and inhibited the cell condensations and tubule formation observed under control conditions | Kd ([1]; HepG2 cells, Scatchard analysis, 20 hours at 4° C., read-out: Kd of high affinity receptors): 0.3 nM | Kd ([1]; HepG2 cells, estimated, read-out: Kd of the high affinity binding sites): ~0.27 nM | Kd (estimated binding affinity) expressed ([1]; HepG2 cells, printed as Kd =0.3 nM=8 ng/ml): 8 ng/mL | specific binding of 125I-BMP-9 ([1]; HepG2 liver cell line, iodinated CHO-derived BMP-9): highest degree of binding | specific [125I]rhBMP-9 binding (liver plasma membranes): evident | ectopic bone formation [2]: inducing cartilage and bone tissue | cell proliferation ([3H]thymidine incorporation) (WI-38 cells): statistically significant stimulation | specific [125I]rhBMP-9 binding (lung plasma membranes; adult rat lung plasma membranes, displaceable by 100-fold excess of unlabeled rhBMP-9): evident | Kd (lung plasma membranes; rat lung plasma membranes): 0.6 nM
